To fix the notation:
B1: AT424 (peptide)
peptide: SGTFISDYSIAMDRIK([AEEA-AEEA-AEEA-γGlu-C16 diacid])QQDFVNWLLAQRGRRNDW-OH
modifications: N-terminus assumed
SMILES: CC[C@H](C)[C@H](NC(=O)[C@H](CO)NC(=O)[C@H](Cc1ccc(O)cc1)NC(=O)[C@H](CC(=O)O)NC(=O)[C@H](CO)NC(=O)[C@@H](NC(=O)[C@H](Cc1ccccc1)NC(=O)[C@@H](NC(=O)CNC(=O)[C@@H](N)CO)[C@@H](C)O)[C@@H](C)CC)C(=O)N[C@@H](C)C(=O)N[C@@H](CCSC)C(=O)N[C@@H](CC(=O)O)C(=O)N[C@@H](CCCNC(=N)N)C(=O)N[C@H](C(=O)N[C@@H](CCCCNC(=O)COCCOCCNC(=O)COCCOCCNC(=O)COCCOCCNC(=O)CC[C@H](NC(=O)CCCCCCCCCCCCCCC(=O)O)C(=O)O)C(=O)N[C@@H](CCC(N)=O)C(=O)N[C@@H](CCC(N)=O)C(=O)N[C@@H](CC(=O)O)C(=O)N[C@@H](Cc1ccccc1)C(=O)N[C@H](C(=O)N[C@@H](CC(N)=O)C(=O)N[C@@H](Cc1c[nH]c2ccccc12)C(=O)N[C@@H](CC(C)C)C(=O)N[C@@H](CC(C)C)C(=O)N[C@@H](C)C(=O)N[C@@H](CCC(N)=O)C(=O)N[C@@H](CCCNC(=N)N)C(=O)NCC(=O)N[C@@H](CCCNC(=N)N)C(=O)N[C@@H](CCCNC(=N)N)C(=O)N[C@@H](CC(N)=O)C(=O)N[C@@H](CC(=O)O)C(=O)N[C@@H](Cc1c[nH]c2ccccc12)C(=O)O)C(C)C)[C@@H](C)CC
B2: AT432 (peptide)
peptide: EGTFISDYSIAMDKIK([AEEA-AEEA-AEEA-γGlu-C16 diacid])QQDFVNWLLAQKGPSSGAPPPS-OH
modifications: N-terminus assumed
SMILES: CC[C@H](C)[C@H](NC(=O)[C@H](CO)NC(=O)[C@H](Cc1ccc(O)cc1)NC(=O)[C@H](CC(=O)O)NC(=O)[C@H](CO)NC(=O)[C@@H](NC(=O)[C@H](Cc1ccccc1)NC(=O)[C@@H](NC(=O)CNC(=O)[C@@H](N)CCC(=O)O)[C@@H](C)O)[C@@H](C)CC)C(=O)N[C@@H](C)C(=O)N[C@@H](CCSC)C(=O)N[C@@H](CC(=O)O)C(=O)N[C@@H](CCCCN)C(=O)N[C@H](C(=O)N[C@@H](CCCCNC(=O)COCCOCCNC(=O)COCCOCCNC(=O)COCCOCCNC(=O)CC[C@H](NC(=O)CCCCCCCCCCCCCCC(=O)O)C(=O)O)C(=O)N[C@@H](CCC(N)=O)C(=O)N[C@@H](CCC(N)=O)C(=O)N[C@@H](CC(=O)O)C(=O)N[C@@H](Cc1ccccc1)C(=O)N[C@H](C(=O)N[C@@H](CC(N)=O)C(=O)N[C@@H](Cc1c[nH]c2ccccc12)C(=O)N[C@@H](CC(C)C)C(=O)N[C@@H](CC(C)C)C(=O)N[C@@H](C)C(=O)N[C@@H](CCC(N)=O)C(=O)N[C@@H](CCCCN)C(=O)NCC(=O)N1CCC[C@H]1C(=O)N[C@@H](CO)C(=O)N[C@@H](CO)C(=O)NCC(=O)N[C@@H](C)C(=O)N1CCC[C@H]1C(=O)N1CCC[C@H]1C(=O)N1CCC[C@H]1C(=O)N[C@@H](CO)C(=O)O)C(C)C)[C@@H](C)CC
B3: AT436 (peptide)
peptide: SGTFISDYSIAMDKIK([AEEA-AEEA-AEEA-γGlu-C16 diacid])QQDFVNWLLAQKGPSSGAPPPS-OH
modifications: N-terminus assumed
SMILES: CC[C@H](C)[C@H](NC(=O)[C@H](CO)NC(=O)[C@H](Cc1ccc(O)cc1)NC(=O)[C@H](CC(=O)O)NC(=O)[C@H](CO)NC(=O)[C@@H](NC(=O)[C@H](Cc1ccccc1)NC(=O)[C@@H](NC(=O)CNC(=O)[C@@H](N)CO)[C@@H](C)O)[C@@H](C)CC)C(=O)N[C@@H](C)C(=O)N[C@@H](CCSC)C(=O)N[C@@H](CC(=O)O)C(=O)N[C@@H](CCCCN)C(=O)N[C@H](C(=O)N[C@@H](CCCCNC(=O)COCCOCCNC(=O)COCCOCCNC(=O)COCCOCCNC(=O)CC[C@H](NC(=O)CCCCCCCCCCCCCCC(=O)O)C(=O)O)C(=O)N[C@@H](CCC(N)=O)C(=O)N[C@@H](CCC(N)=O)C(=O)N[C@@H](CC(=O)O)C(=O)N[C@@H](Cc1ccccc1)C(=O)N[C@H](C(=O)N[C@@H](CC(N)=O)C(=O)N[C@@H](Cc1c[nH]c2ccccc12)C(=O)N[C@@H](CC(C)C)C(=O)N[C@@H](CC(C)C)C(=O)N[C@@H](C)C(=O)N[C@@H](CCC(N)=O)C(=O)N[C@@H](CCCCN)C(=O)NCC(=O)N1CCC[C@H]1C(=O)N[C@@H](CO)C(=O)N[C@@H](CO)C(=O)NCC(=O)N[C@@H](C)C(=O)N1CCC[C@H]1C(=O)N1CCC[C@H]1C(=O)N1CCC[C@H]1C(=O)N[C@@H](CO)C(=O)O)C(C)C)[C@@H](C)CC
B4: AT416 (peptide)
peptide: EGTFISDYSIAMDKIK([AEEA-AEEA-AEEA-γGlu-C16 diacid])QQDFVNWLLAQKGKKNDW-OH
modifications: N-terminus assumed
SMILES: CC[C@H](C)[C@H](NC(=O)[C@H](CO)NC(=O)[C@H](Cc1ccc(O)cc1)NC(=O)[C@H](CC(=O)O)NC(=O)[C@H](CO)NC(=O)[C@@H](NC(=O)[C@H](Cc1ccccc1)NC(=O)[C@@H](NC(=O)CNC(=O)[C@@H](N)CCC(=O)O)[C@@H](C)O)[C@@H](C)CC)C(=O)N[C@@H](C)C(=O)N[C@@H](CCSC)C(=O)N[C@@H](CC(=O)O)C(=O)N[C@@H](CCCCN)C(=O)N[C@H](C(=O)N[C@@H](CCCCNC(=O)COCCOCCNC(=O)COCCOCCNC(=O)COCCOCCNC(=O)CC[C@H](NC(=O)CCCCCCCCCCCCCCC(=O)O)C(=O)O)C(=O)N[C@@H](CCC(N)=O)C(=O)N[C@@H](CCC(N)=O)C(=O)N[C@@H](CC(=O)O)C(=O)N[C@@H](Cc1ccccc1)C(=O)N[C@H](C(=O)N[C@@H](CC(N)=O)C(=O)N[C@@H](Cc1c[nH]c2ccccc12)C(=O)N[C@@H](CC(C)C)C(=O)N[C@@H](CC(C)C)C(=O)N[C@@H](C)C(=O)N[C@@H](CCC(N)=O)C(=O)N[C@@H](CCCCN)C(=O)NCC(=O)N[C@@H](CCCCN)C(=O)N[C@@H](CCCCN)C(=O)N[C@@H](CC(N)=O)C(=O)N[C@@H](CC(=O)O)C(=O)N[C@@H](Cc1c[nH]c2ccccc12)C(=O)O)C(C)C)[C@@H](C)CC
B5: AT438 (peptide)
peptide: SGTFISDYSIAMDKIK([AEEA-AEEA-AEEA-γGlu-C18 diacid])QQDFVNWLLAQKGPSSGAPPPS-OH
modifications: N-terminus assumed
SMILES: CC[C@H](C)[C@H](NC(=O)[C@H](CO)NC(=O)[C@H](Cc1ccc(O)cc1)NC(=O)[C@H](CC(=O)O)NC(=O)[C@H](CO)NC(=O)[C@@H](NC(=O)[C@H](Cc1ccccc1)NC(=O)[C@@H](NC(=O)CNC(=O)[C@@H](N)CO)[C@@H](C)O)[C@@H](C)CC)C(=O)N[C@@H](C)C(=O)N[C@@H](CCSC)C(=O)N[C@@H](CC(=O)O)C(=O)N[C@@H](CCCCN)C(=O)N[C@H](C(=O)N[C@@H](CCCCNC(=O)COCCOCCNC(=O)COCCOCCNC(=O)COCCOCCNC(=O)CC[C@H](NC(=O)CCCCCCCCCCCCCCCCC(=O)O)C(=O)O)C(=O)N[C@@H](CCC(N)=O)C(=O)N[C@@H](CCC(N)=O)C(=O)N[C@@H](CC(=O)O)C(=O)N[C@@H](Cc1ccccc1)C(=O)N[C@H](C(=O)N[C@@H](CC(N)=O)C(=O)N[C@@H](Cc1c[nH]c2ccccc12)C(=O)N[C@@H](CC(C)C)C(=O)N[C@@H](CC(C)C)C(=O)N[C@@H](C)C(=O)N[C@@H](CCC(N)=O)C(=O)N[C@@H](CCCCN)C(=O)NCC(=O)N1CCC[C@H]1C(=O)N[C@@H](CO)C(=O)N[C@@H](CO)C(=O)NCC(=O)N[C@@H](C)C(=O)N1CCC[C@H]1C(=O)N1CCC[C@H]1C(=O)N1CCC[C@H]1C(=O)N[C@@H](CO)C(=O)O)C(C)C)[C@@H](C)CC
B6: AT426 (peptide)
peptide: SGTFISDYSIAMDRIK([AEEA-AEEA-AEEA-γGlu-C18 diacid])QQDFVNWLLAQRGRRNDW-OH
modifications: N-terminus assumed
SMILES: CC[C@H](C)[C@H](NC(=O)[C@H](CO)NC(=O)[C@H](Cc1ccc(O)cc1)NC(=O)[C@H](CC(=O)O)NC(=O)[C@H](CO)NC(=O)[C@@H](NC(=O)[C@H](Cc1ccccc1)NC(=O)[C@@H](NC(=O)CNC(=O)[C@@H](N)CO)[C@@H](C)O)[C@@H](C)CC)C(=O)N[C@@H](C)C(=O)N[C@@H](CCSC)C(=O)N[C@@H](CC(=O)O)C(=O)N[C@@H](CCCNC(=N)N)C(=O)N[C@H](C(=O)N[C@@H](CCCCNC(=O)COCCOCCNC(=O)COCCOCCNC(=O)COCCOCCNC(=O)CC[C@H](NC(=O)CCCCCCCCCCCCCCCCC(=O)O)C(=O)O)C(=O)N[C@@H](CCC(N)=O)C(=O)N[C@@H](CCC(N)=O)C(=O)N[C@@H](CC(=O)O)C(=O)N[C@@H](Cc1ccccc1)C(=O)N[C@H](C(=O)N[C@@H](CC(N)=O)C(=O)N[C@@H](Cc1c[nH]c2ccccc12)C(=O)N[C@@H](CC(C)C)C(=O)N[C@@H](CC(C)C)C(=O)N[C@@H](C)C(=O)N[C@@H](CCC(N)=O)C(=O)N[C@@H](CCCNC(=N)N)C(=O)NCC(=O)N[C@@H](CCCNC(=N)N)C(=O)N[C@@H](CCCNC(=N)N)C(=O)N[C@@H](CC(N)=O)C(=O)N[C@@H](CC(=O)O)C(=O)N[C@@H](Cc1c[nH]c2ccccc12)C(=O)O)C(C)C)[C@@H](C)CC

*1 amine or outer side, *2 acyl side, *3 side chain or, on linkers, in order; H or OH if unused. Where no end group is shown, it is not given here. Side-chain parts run from the residue outwards. The star is where a group is joined. C18 diacid = O=C(O)CCCCCCCCCCCCCCCCC(=O)*; C16 diacid = O=C(O)CCCCCCCCCCCCCCC(=O)*; γGlu = O=C(O)[C@H](CCC(=O)[*:2])N[*:1]; AEEA = NCCOCCOCC(=O)O

The record followed here is patent US20220298218A1 (ANTAG THERAPEUTICS, published 2022).

The test has as its target T1, human GIP receptor (human, UniProt P48546 22-466).
T1 sequence (looked up): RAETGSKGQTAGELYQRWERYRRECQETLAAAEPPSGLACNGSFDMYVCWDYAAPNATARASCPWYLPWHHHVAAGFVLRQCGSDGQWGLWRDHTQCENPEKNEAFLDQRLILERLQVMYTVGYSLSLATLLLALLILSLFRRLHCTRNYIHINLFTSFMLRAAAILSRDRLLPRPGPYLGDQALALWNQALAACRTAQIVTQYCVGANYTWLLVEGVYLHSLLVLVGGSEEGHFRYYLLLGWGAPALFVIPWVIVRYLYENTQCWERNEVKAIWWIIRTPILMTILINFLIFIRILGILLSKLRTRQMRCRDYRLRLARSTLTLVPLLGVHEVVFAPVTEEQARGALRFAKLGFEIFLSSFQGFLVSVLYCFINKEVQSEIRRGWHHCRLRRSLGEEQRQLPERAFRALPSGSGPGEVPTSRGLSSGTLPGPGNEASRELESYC
As to the kind of experiment: cell-based or functional assay.
Take B1: the “cAMP antagonism” value was 35 nM, the “cAMP antagonism % inhib” value stood at 100% and the cAMP antagonism log is -7.5 log M.
With B2, the “cAMP antagonism” value is 19 nM, the “cAMP antagonism % inhib” value amounted to 92% and the cAMP antagonism log is -7.7 log M.
For B3, the “cAMP antagonism” value stood at 18 nM, the “cAMP antagonism % inhib” value turned out to be 100% and the cAMP antagonism log was -7.7 log M.
For the molecule B4, the “cAMP antagonism” value worked out at 52 nM, the “cAMP antagonism % inhib” value stood at 90% and the cAMP antagonism log is -7.3 log M.
For B5, the “cAMP antagonism” value was found to be 54 nM, the “cAMP antagonism % inhib” value stood at 100% and the cAMP antagonism log was -7.3 log M.
Regarding B6, the “cAMP antagonism” value was 28 nM, the “cAMP antagonism % inhib” value came to 80% and the cAMP antagonism log was -7.6 log M.
